Assay results reported in patent publication US7507412B2, “Glycoprotein VI fusion proteins” (Merck Patent GmbH, priority 2001, dated 2009).

B1: purified recombinant glycoprotein VI (receptor, UniProt Q9HCN6 21-269, looked up)
chain: QSGPLPKPSLQALPSSLVPLEKPVTLRCQGPPGVDLYRLEKLSSSRYQDQAVLFIPAMKRSLAGRYRCSYQNGSLWSLPSDQLELVATGVFAKPSLSAQPGPAVSSGGDVTLQCQTRYGFDQFALYKEGDPAPYKNPERWYRASFPIITVTAAHSGTYRCYSFSSRDPYLWSAPSDPLELVVTGTSVTPSRLPTEPPSPVAEFSEATAELTVSFTNEVFTTETSRSITASPKESDSPAGPARQYYTKGN
notes: also called GPVI; purified soluble GPVI

Tests used:
collagen type III [1] = target: T1, collagen type III (Homo sapiens, UniProt P02461); experiment: ELISA: GPVI-Fc binding at collagen-coated microtiter plates; conditions: HEPES binding buffer pH 7.4, FIG. 4
T1 sequence (P02461 154-1221 limits assumed): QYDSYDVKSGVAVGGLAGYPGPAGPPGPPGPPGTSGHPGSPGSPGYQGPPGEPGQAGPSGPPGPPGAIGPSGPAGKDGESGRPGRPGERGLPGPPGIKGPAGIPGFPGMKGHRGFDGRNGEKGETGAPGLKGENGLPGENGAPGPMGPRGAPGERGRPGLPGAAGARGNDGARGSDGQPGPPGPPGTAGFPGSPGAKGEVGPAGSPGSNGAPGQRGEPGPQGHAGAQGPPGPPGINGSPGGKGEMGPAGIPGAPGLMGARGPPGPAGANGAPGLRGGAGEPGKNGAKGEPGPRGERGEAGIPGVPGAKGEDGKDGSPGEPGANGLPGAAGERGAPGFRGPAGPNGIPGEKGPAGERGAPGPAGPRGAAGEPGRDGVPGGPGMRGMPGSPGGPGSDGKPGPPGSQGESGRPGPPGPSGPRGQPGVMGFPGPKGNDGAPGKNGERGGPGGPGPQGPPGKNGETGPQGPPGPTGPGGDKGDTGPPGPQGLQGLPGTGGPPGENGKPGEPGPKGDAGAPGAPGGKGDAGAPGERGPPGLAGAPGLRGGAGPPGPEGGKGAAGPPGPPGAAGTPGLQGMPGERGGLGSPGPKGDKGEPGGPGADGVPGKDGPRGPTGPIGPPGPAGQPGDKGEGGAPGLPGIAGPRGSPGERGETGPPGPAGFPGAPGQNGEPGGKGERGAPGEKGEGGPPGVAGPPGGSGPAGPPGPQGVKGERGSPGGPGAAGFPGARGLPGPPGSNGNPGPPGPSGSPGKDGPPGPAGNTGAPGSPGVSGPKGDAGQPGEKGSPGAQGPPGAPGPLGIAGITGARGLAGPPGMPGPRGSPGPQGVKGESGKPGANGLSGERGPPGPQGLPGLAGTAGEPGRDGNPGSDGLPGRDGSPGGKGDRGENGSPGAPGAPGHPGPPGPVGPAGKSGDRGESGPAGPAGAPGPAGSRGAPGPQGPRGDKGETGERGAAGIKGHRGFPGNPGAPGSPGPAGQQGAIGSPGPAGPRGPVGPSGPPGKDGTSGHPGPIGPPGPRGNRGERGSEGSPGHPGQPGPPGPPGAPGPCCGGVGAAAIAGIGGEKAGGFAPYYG
Description: GPVI-Fc, solved in HEPES buffer (pH 7.4) containing 1% BSA and 0.05% Tween 20, was allowed to bind at collagen-coated microtiter plates. The amount of collagen-bound GPVI-Fc was calorimetrically detected by an anti-Fc antibody conjugated with horse radish peroxidase. Non-specific binding was estimated by a collagen non-specific Fc fusion protein applied instead of GPVI-Fc. Data shown as mean (n=2).
In principle, collagen coated microtiter plates are used as a matrix and GPVI-Fc as the ligand. The detection of bound GPVI-Fc is carried out by an anti-Fc antibody conjugated with horse radish peroxidase which binds specifically at the Fc moiety. After addition of peroxidase substrate, the amount of bound GPVI-Fc is reflected by an increase in absorption.
The polystyrol microtiterplates are coated with 50 μl of 20 μg/ml collagen type III suspended in TRIS buffered saline pH 8.0 for 12 h. Non-bound collagen is removed by washing. Afterwards, free protein binding sites are blocked by 5% (w/v) milk powder and 0.05% (v/v) Tween® 20 both solved in HEPES buffer (pH 7.4).
GPVI-Fc, in a concentration range of 0.1-100 nM, is solved in binding buffer (HEPES, 1% (w/v) bovine serum albumin, 0.05% (v/v) Tween® 20, pH 7.4). […]
Fifty μl of GPVI-Fc solution are given into each well. […] Finally, the amount of bound GPVI-Fc is calorimetrically detected by the peroxidase reaction.

human platelets = experiment: Collagen-induced platelet aggregation, determined turbidometrically; assay type: cell-based; conditions: GPVI-Fc added prior to collagen, 10 μg/ml collagen, FIG. 6
Method: Platelet aggregation is turbidometrically determined after the addition of 10 μg/ml collagen (control) and in the presence of different GPVI-Fc concentrations. Data are shown as means (n=4).
The therapeutic relevance for GPVI-antagonists to prevent collagen-induced thromboembolic complications is shown by a GPVI-Fc titration curve (FIG. 6). Briefly, stimulation of human platelets with collagen induces an aggregation within minutes. […] Therefore, collagen trapped by GPVI-Fc is no longer able to induce an aggregation of platelets. Considering the therapeutic relevance of GPVI receptor antagonism the following conclusion can be drawn from the results presented above: • (i) GPVI-Fc itself can be used as a drug to prevent collagen-induced thromboembolic complications. • (ii) Antagonism of the platelet GPVI receptor by low molecular drugs should prevent the collagen-induced aggregation.

collagen type III [2] = target: T1, collagen type III; experiment: Binding of GPVI to collagen type III measured by surface plasmon resonance (BIAcore 3000); parameters: purchased Sigma
Description: The known interaction of GPVI to Collagen was used to develop a binding test with the BIAcore 3000. The binding of proteins to immobilized ligands can be monitored using the phenomenon of surface plasmon resonance (SPR). This technique can give results regarding the affinity and kinetics of interacting molecules in solution.
In this assay human collagen type III was immobilized on the sensor surface as stated in the methods and purified soluble GPVI was passed over the collagen surface.
(§1) Protein interactions were identified and characterized by SPR technology using the BIAcore® 3000 instrument (BIAcore®, Freiburg, Germany) and methodology (Johnsson and Lindqvist, 1992; Johnsson et al., 1991). Coupling reagents were used according to protocols developed by the supplier. Coupling to the CM 5 sensor chip was done via activated carboxylate groups to free amine groups of human collagen type III (Sigma®). The pH-scouting and the coupling chemistry was performed under standard conditions (Johnsson and Lindqvist, 1992; Johnsson et al., 1991). For coupling the collagen was diluted to 0.125 μg/ml into 10 mM acetate buffer pH 4.5, resulting in 331 RU immobilized material.
(§2) For the binding experiments purified recombinant glycoprotein VI was used. The protein was diluted into 20 mM Hepes, pH 7.4, 150 mM NaCl, 5 mM EDTA, 0.005% Tween® 20. All binding experiments were performed at 25° C. and performed in duplicates.
The titration with glycoprotein VI was performed at concentrations ranging from 0.2 μg/ml to 50 μg/ml.
Total protein concentrations were determined by the BCA method (Pierce) The kinetic of the interaction of GPVI with collagen can be observed in the sensorgram seen in FIG. 7. In the experiment increasing concentrations of purified GPVI were passed over the collagen type III surface.

[3] = target: T2, human collagen type III (Sigma) (human, UniProt P02461 154-1221, limits assumed); experiment: SPR equilibrium analysis, assuming 75000 Da and fully active protein
T2 construct: Purified natural collagen immobilised on the chip (331 RU); also called Collagen type III (human)
T2 sequence (looked up): T1 sequence (P02461 154-1221 limits assumed)
Method: as §1, with “µg/ml” for “μg/ml”
as §2

[4] = target: T2, human collagen type III (Sigma); experiment: SPR, BIAcore 3000, collagen type III immobilised, GPVI in solution, 25 C
Method: as §1, with “µg/ml” for “μg/ml”
as §2

| Molecule | concentration at which collagen-binding sites are completely occupied (saturation curve) (collagen type III [1]) | suppression of collagen-induced platelet aggregation (human platelets) | dissociation rate constant from the collagen surface (collagen type III [2]; 25° C.) | time until binding reaches saturation (collagen type III [2]; 25° C., GPVI 0.2-50 μg/ml) | half maximal concentration of saturation for the GPVI/collagen interaction (collagen type III [2]; equilibrium binding signal, non linear fit, 1:1 binding model, FIG. 8) | Kd [3] | koff [4] |
| --- | --- | --- | --- | --- | --- | --- | --- |
| GPVI-Fc: Fusion of extracellular part of GPVI (aa 21 to 269), Cys-Gly-Arg linker and Fc of IgG1, encoded in KL74A | above 100 nM | concentration-dependent reduction of platelet-aggregation | – | – | – | – | – |
| B1 | – | – | 0.003 s⁻¹ | about 200 seconds | 9 µg/mL | ~120 nM | 0.003 s⁻¹ |
